Reference: the RNAGym collection of RNA variant scans (doi:10.7554/elife.80360)

B1: CPEB3 Ribozyme (parent)
chain: GGGGGCCACAGCAGAAGCGUUCACGUCGCGGCCCCUGUCAGAUUCUGGUGAAUCUGCGAAUUCUGCUGU

Variants of: B1
Assay: self-cleavage, relative activity (ratio to wild type); higher = more cleavage; co-transcriptional

Going from GGCGGCCACAGCAGAAGCGUUCACGUCGCGGCCCUUGUCAGAUUCUGGUGAAUCUGCGAAUUCUGCUGU to GGCGGCCACAGCAGAAGCGUUCACGUCGCGGACCCUGUCAGAUUCUGGUGAAUCUGCGAAUUCUGCUGU, the self-cleavage falls from 0.0352 to 0.0311.

Going from GGCGGCCACAGCAGAAGCGUUCACGUGGCGGCCCCUGUCAGAUUCUGGUGAAUCUGCGAAUUCUGCUGU to GGCGGCCACAGCAGAAGCGUUCACGUUGCGGCCCCUGUCAGAUUCUGGUGAAUCUGCGAAUUCUGCUGU, the self-cleavage falls from 0.06 to 0.0443.

First: GGCGGCCACAGCAGAAGCGUUCACGUCGCGGCCCCUGUCAGAUUCUGGUGAAUCUGCGAGUUCUGCUGU
Second: GGCGGCCACAGCAGAAGCGUUCACGUCGCGGCCCCUGUCAGAUUCUGGUGAAUCUGCGACUUCUGCUGU
The self-cleavage of the first is lower: 0.0121 for the first, 0.0624 for the second.

Compared with GGCGGCCACAGCAGAAGCGUUCACGUCGCGGCCCCUGUCAGAUUCUGGUGAAUCUGCGCAUUCUGCUGU, GGCGGCCACAGCAGAAGCGUUCACGUCGCGGCCCCUGUCAGAUUCUGGUGAAUCUGCGGAUUCUGCUGU is higher in self-cleavage: 0.0244 for the first, 0.0736 for the second.

Compared with GGCGGCCACAGCAGAAGCGUUCACGUCGCGGCCCCUGUUAGAUUCUGGUGAAUCUGCGAAUUCUGCUGU, GGCGGCCACAGCAGAAGCGUUCACGUCGCGGCCCCUGUGAGAUUCUGGUGAAUCUGCGAAUUCUGCUGU is higher in self-cleavage: 0.0426 for the first, 0.0769 for the second.

First: GGCGGCCACAGCAGAAGCGUUCACGUCGGGGCCCCUGUCAGAUUCUGGUGAAUCUGCGAAUUCUGCUGU
Second: GGCGGCCACAGCAGAAGCGUUCACGUCGCGGCCGCUGUCAGAUUCUGGUGAAUCUGCGAAUUCUGCUGU
The self-cleavage of the first is lower: 0.0545 for the first, 0.783 for the second.

Compared with GGCGGCCACAGCAGAAGCGUUCACGUCGCGGCCCCUGUCAGAUUCUGGUGAUUCUGCGAAUUCUGCUGU, GGCGGCCACAGCAGAAGCGUUCACGUCGCGGCCCCUGUCAGAUUCUGGUGACUCUGCGAAUUCUGCUGU is lower in self-cleavage: 0.075 for the first, 0.0723 for the second.

First: GGCGGCCACAGCAGAAGCGUUCACGUCGCGGCCCCUGUCAGAUUCUGGUGAGUCUGCGAAUUCUGCUGU
Second: GGCGGCCACAGCAGAAGCGUUCACGUCGCGGCCCCUGUCAGAUUCUGGUGCAUCUGCGAAUUCUGCUGU
The self-cleavage of the first is higher: 0.0775 for the first, 0.0422 for the second.

First: GGCGGCCACAGCAGAAGCGUUCACGUCGCGGCCCCUGUCAGAUUCUGGUGGAUCUGCGAAUUCUGCUGU
Second: GGCGGCCACAGCAGAAGCGUUGACGUCGCGGCCCCUGUCAGAUUCUGGUGAAUCUGCGAAUUCUGCUGU
The self-cleavage of the first is higher: 0.0762 for the first, 0.0359 for the second.

First: GGCGGCCACAGCAGAAGCGUUAACGUCGCGGCCCCUGUCAGAUUCUGGUGAAUCUGCGAAUUCUGCUGU
Second: GGCGGCCACAGCAGAAGCGUUUACGUCGCGGCCCCUGUCAGAUUCUGGUGAAUCUGCGAAUUCUGCUGU
The self-cleavage of the first is lower: 0.0184 for the first, 0.0738 for the second.

Compared with GGCGGCGACAGCAGAAGCGUUCACGUCGCGGCCCCUGUCAGAUUCUGGUGAAUCUGCGAAUUCUGCUGU, GGCGGCUACAGCAGAAGCGUUCACGUCGCGGCCCCUGUCAGAUUCUGGUGAAUCUGCGAAUUCUGCUGU is higher in self-cleavage: 0.0644 for the first, 0.102 for the second.

Going from GGCGGCAACAGCAGAAGCGUUCACGUCGCGGCCCCUGUCAGAUUCUGGUGAAUCUGCGAAUUCUGCUGU to GGCGGCCACAGCAGAAGCGUUCACGUCGCGGCCCCUGUCAGUUUCUGGUGAAUCUGCGAAUUCUGCUGU, the self-cleavage rises from 0.026 to 0.0888.

Going from GGCGGCCACAGCAGAAGCGUUCACGUCGCGGCUCCUGUCAGAUUCUGGUGAAUCUGCGAAUUCUGCUGU to GGCGGCCACAGCAGAAGCGUUCACGUCGCGGCACCUGUCAGAUUCUGGUGAAUCUGCGAAUUCUGCUGU, the self-cleavage falls from 0.0583 to 0.0485.

Compared with GGCGGCCACAGUAGAAGCGUUCACGUCGCGGCCCCUGUCAGAUUCUGGUGAAUCUGCGAAUUCUGCUGU, GGCGGCCACAGAAGAAGCGUUCACGUCGCGGCCCCUGUCAGAUUCUGGUGAAUCUGCGAAUUCUGCUGU is lower in self-cleavage: 0.0982 for the first, 0.0611 for the second.

Compared with GGCGGCCACAGCAGAAGUGUUCACGUCGCGGCCCCUGUCAGAUUCUGGUGAAUCUGCGAAUUCUGCUGU, GGCGGCCACAGCAGAAGGGUUCACGUCGCGGCCCCUGUCAGAUUCUGGUGAAUCUGCGAAUUCUGCUGU is lower in self-cleavage: 0.0442 for the first, 0.0441 for the second.

Compared with GGCGGCCACAGCAGAAGAGUUCACGUCGCGGCCCCUGUCAGAUUCUGGUGAAUCUGCGAAUUCUGCUGU, GGCGGCCACAGCAGAAGCGUUCAGGUCGCGGCCCCUGUCAGAUUCUGGUGAAUCUGCGAAUUCUGCUGU is lower in self-cleavage: 0.058 for the first, 0.0519 for the second.

Going from GGCGGCCACAGCAGAAGCGUUCAUGUCGCGGCCCCUGUCAGAUUCUGGUGAAUCUGCGAAUUCUGCUGU to GGCGGCCACAGCAGAAGCGUUCACGUCGCGGCCCCUGUCAGAUUAUGGUGAAUCUGCGAAUUCUGCUGU, the self-cleavage rises from 0.0425 to 0.0668.

First: GGCGGCCACAGCAGAAGCGUUCACGUCGCGGCCCCUGUCAGAUUUUGGUGAAUCUGCGAAUUCUGCUGU
Second: GGCGGCCAGAGCAGAAGCGUUCACGUCGCGGCCCCUGUCAGAUUCUGGUGAAUCUGCGAAUUCUGCUGU
The self-cleavage of the first is lower: 0.121 for the first, 0.166 for the second.

First: GGCGGCCAAAGCAGAAGCGUUCACGUCGCGGCCCCUGUCAGAUUCUGGUGAAUCUGCGAAUUCUGCUGU
Second: GGCGGUCACAGCAGAAGCGUUCACGUCGCGGCCCCUGUCAGAUUCUGGUGAAUCUGCGAAUUCUGCUGU
The self-cleavage of the first is higher: 0.511 for the first, 0.0391 for the second.

For GGCGGGCACAGCAGAAGCGUUCACGUCGCGGCCCCUGUCAGAUUCUGGUGAAUCUGCGAAUUCUGCUGU, the self-cleavage was 0.0449.
